This assay deals with T1, TNFR1 (Homo sapiens, UniProt P19438).
T1 chain: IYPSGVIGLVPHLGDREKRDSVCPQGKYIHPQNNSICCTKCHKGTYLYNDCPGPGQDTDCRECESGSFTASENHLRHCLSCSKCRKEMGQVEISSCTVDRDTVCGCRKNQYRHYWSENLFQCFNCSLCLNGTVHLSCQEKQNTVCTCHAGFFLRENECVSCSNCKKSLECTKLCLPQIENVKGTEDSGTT
Description: yeast display SC50.

B1: Q48R (designed binder)
chain: MTLQELLREEALRRAEAEAFRYALELLAEKFPEQKEYLLDLAEEIESRIRSLSGVDVEDVRKFLDKEWAWVKELLAEHPAELAEVEAARAARLAELRAEVEAKVAA
Regarding B1, the “apparent Kd (screen)” value worked out at 1860 pM.

B2: A69L (designed binder)
chain: MTLQELLREEALRRAEAEAFRYALELLAEKFPEQKEYLLDLAEEIESQIRSLSGVDVEDVRKFLDKEWLWVKELLAEHPAELAEVEAARAARLAELRAEVEAKVAA
For B2, the “apparent Kd (screen)” value is 490 pM.

B3: E58D (designed binder)
chain: MTLQELLREEALRRAEAEAFRYALELLAEKFPEQKEYLLDLAEEIESQIRSLSGVDVDDVRKFLDKEWAWVKELLAEHPAELAEVEAARAARLAELRAEVEAKVAA
As to B3, the “apparent Kd (screen)” value stood at 539 pM.

B4: E58A (designed binder)
chain: MTLQELLREEALRRAEAEAFRYALELLAEKFPEQKEYLLDLAEEIESQIRSLSGVDVADVRKFLDKEWAWVKELLAEHPAELAEVEAARAARLAELRAEVEAKVAA
For the molecule B4, the “apparent Kd (screen)” value came to 718 pM.

B5: L6F (designed binder)
chain: MTLQEFLREEALRRAEAEAFRYALELLAEKFPEQKEYLLDLAEEIESQIRSLSGVDVEDVRKFLDKEWAWVKELLAEHPAELAEVEAARAARLAELRAEVEAKVAA
Consider B5, for which the “apparent Kd (screen)” value came to 2050 pM.

B6: E99Y (designed binder)
chain: MTLQELLREEALRRAEAEAFRYALELLAEKFPEQKEYLLDLAEEIESQIRSLSGVDVEDVRKFLDKEWAWVKELLAEHPAELAEVEAARAARLAELRAYVEAKVAA
As to B6, the “apparent Kd (screen)” value was found to be 718 pM.

B7: Y22L (designed binder)
chain: MTLQELLREEALRRAEAEAFRLALELLAEKFPEQKEYLLDLAEEIESQIRSLSGVDVEDVRKFLDKEWAWVKELLAEHPAELAEVEAARAARLAELRAEVEAKVAA
Regarding B7, the “apparent Kd (screen)” value amounted to 718 pM.

B8: E18A (designed binder)
chain: MTLQELLREEALRRAEAAAFRYALELLAEKFPEQKEYLLDLAEEIESQIRSLSGVDVEDVRKFLDKEWAWVKELLAEHPAELAEVEAARAARLAELRAEVEAKVAA
Take B8: the “apparent Kd (screen)” value turned out to be 718 pM.

B9: L3Q (designed binder)
chain: MTQQELLREEALRRAEAEAFRYALELLAEKFPEQKEYLLDLAEEIESQIRSLSGVDVEDVRKFLDKEWAWVKELLAEHPAELAEVEAARAARLAELRAEVEAKVAA
Take B9: the “apparent Kd (screen)” value amounted to 22200 pM.

B10: R21L (designed binder)
chain: MTLQELLREEALRRAEAEAFLYALELLAEKFPEQKEYLLDLAEEIESQIRSLSGVDVEDVRKFLDKEWAWVKELLAEHPAELAEVEAARAARLAELRAEVEAKVAA
In the case of B10, the “apparent Kd (screen)” value is 653 pM.

B11: D59G (designed binder)
chain: MTLQELLREEALRRAEAEAFRYALELLAEKFPEQKEYLLDLAEEIESQIRSLSGVDVEGVRKFLDKEWAWVKELLAEHPAELAEVEAARAARLAELRAEVEAKVAA
Consider B11, for which the “apparent Kd (screen)” value is 653 pM.

B12: K35P (designed binder)
chain: MTLQELLREEALRRAEAEAFRYALELLAEKFPEQPEYLLDLAEEIESQIRSLSGVDVEDVRKFLDKEWAWVKELLAEHPAELAEVEAARAARLAELRAEVEAKVAA
Regarding B12, the “apparent Kd (screen)” value is 2730 pM.

B13: R50C (designed binder)
chain: MTLQELLREEALRRAEAEAFRYALELLAEKFPEQKEYLLDLAEEIESQICSLSGVDVEDVRKFLDKEWAWVKELLAEHPAELAEVEAARAARLAELRAEVEAKVAA
B13: the “apparent Kd (screen)” value was determined as 539 pM.

B14: I49P (designed binder)
chain: MTLQELLREEALRRAEAEAFRYALELLAEKFPEQKEYLLDLAEEIESQPRSLSGVDVEDVRKFLDKEWAWVKELLAEHPAELAEVEAARAARLAELRAEVEAKVAA
With B14, the “apparent Kd (screen)” value stood at 24400 pM.

Values taken from PMC12416549 (2024).
